Source: paper PMC7954794, “Protein context shapes the specificity of SH3 domain-mediated interactions in vivo” (Nature Communications, 2021)

Test system: PPIs identified as affected by the SH3 domain deletions
Assay: Liquid DHFR-PCA low-throughput validation of PPIs affected by SH3 deletion (Fig. S1D-E)
Type: cell-based, Saccharomyces cerevisiae
Conditions: label = prey, liquid DHFR-PCA, prey _1 = lost, _2 = gained in screen
Method: Liquid DHFR-PCA low-throughput experiments were performed to validate the PPIs identified as affected by the SH3 domain deletions in the high-throughput solid DHFR-PCA screen (256 PPIs weaker or lost and 116 PPIs stronger or gained following domain deletions). Mating and the diploid selection were performed as described for the large-scale experiment, with the exception that the plates were in 384 formats. Following the second diploid selection, diploid cells were inoculated in a 96 v-shaped well plate using a robotically manipulated 96 pin tool in a synthetic complete medium with MSG at pH 6.0 with NAT and HPH. After 48 h of growth, optical density (OD) was read using a TECAN Infinite F200 Pro, and dilutions to 1 OD in sterile nanopure water were prepared. Cells were then diluted to 0.1 OD by combining 25 µl of cell suspension at OD = 1 and 225 µl of PCA selection media without agar in a 96-wells plate. Plates were incubated at 30 °C in a TECAN Infinite M Nano and OD was monitored each 15 min for 72 h.

Row | Molecule | Ratio (Deletedscore / WTscore) (bait BBC1) | Ratio (Deletedscore / WTscore) (bait MYO3) | Ratio (Deletedscore / WTscore) (bait MYO5) | further results
1 | YHR114W_1 (protein, UniProt P38822 1-633, looked up) Protein BZZ1: MSADLSIGNEIKDSFKETHKWVQNNLKWLKDIEQFYRERAKLEKDYSERLSRLSAEYFNKKSSTSVPISVGDTPTTTPGSIEAAGVVAWNEILSQTDMISKDHDQLSTDFENHVANQLSGLFTKLDMTLSKINGFNNDMVNKKDNIYHELEKAKKDYDEACSTMEMARNRYTKASNDRNKKKLDEKEMEMNKCKNEYLIKINQANRTKDKYYFQDVPEVLDLLQDVNEAKTLFLNDLWLKAASVENDLGANVSKRLQAANSVVKQNKPSLNTAIFIKHNLKNWKEPQDFVYKPSPVWHDDEKFAVPSSLEVEDLRIKLAKAENDYNSLQDKTQNELSKLSTLNKIKHEMKTNEDNINATKFYDTLKEYLNVVSPFTSHETLKLQAEVQIESIQNNVPEEYDLSTDNIDLSKTKKKSGIFSKFKHNILNVDSKPSSGGSTGNGNGGPLHITSLFNTSRRTRLGSAPNNAGEDSDNNSIRTTSTNNTKKTTQNSSDDGKNKVLYAYVQKDDDEITITPGDKISLVARDTGSGWTKINNDTTGETGLVPTTYIRISSAATVKANDRGPAPEVPPPRRSTLPVRTMEAIYAYEAQGDDEISIDPGDIITVIRGDDGSGWTYGECDGLKGLFPTSYCK | 0.6315 | 0.5608 | 0.7759 | Ratio (Deletedscore / WTscore) (bait LSB3): 0.7048; Ratio (Deletedscore / WTscore) (bait RVS167): 0.6256
2 | YKL117W_1 (protein, UniProt P28707 2-216, looked up) Co-chaperone protein SBA1: SDKVINPQVAWAQRSSTTDPERNYVLITVSIADCDAPELTIKPSYIELKAQSKPHVGDENVHHYQLHIDLYKEIIPEKTMHKVANGQHYFLKLYKKDLESEYWPRLTKEKVKYPYIKTDFDKWVDEDEQDEVEAEGNDAAQGMDFSQMMGGAGGAGGAGGMDFSQMMGGAGGAGSPDMAQLQQLLAQSGGNLDMGDFKENDEEDEEEEIEPEVKA | 0.6627 | – | – | –
3 | YBL007C_1 (protein, UniProt P32790 1-1244, looked up) Actin cytoskeleton-regulatory …: MTVFLGIYRAVYAYEPQTPEELAIQEDDLLYLLQKSDIDDWWTVKKRVIGSDSEEPVGLVPSTYIEEAPVLKKVRAIYDYEQVQNADEELTFHENDVFDVFDDKDADWLLVKSTVSNEFGFIPGNYVEPENGSTSKQEQAPAAAEAPAATPAAAPASAAVLPTNFLPPPQHNDRARMMQSKEDQAPDEDEEGPPPAMPARPTATTETTDATAAAVRSRTRLSYSDNDNDDEEDDYYYNSNSNNVGNHEYNTEYHSWNVTEIEGRKKKKAKLSIGNNKINFIPQKGTPHEWSIDKLVSYDNEKKHMFLEFVDPYRSLELHTGNTTTCEEIMNIIGEYKGASRDPGLREVEMASKSKKRGIVQYDFMAESQDELTIKSGDKVYILDDKKSKDWWMCQLVDSGKSGLVPAQFIEPVRDKKHTESTASGIIKSIKKNFTKSPSRSRSRSRSKSNANASWKDDELQNDVVGSAAGKRSRKSSLSSHKKNSSATKDFPNPKKSRLWVDRSGTFKVDAEFIGCAKGKIHLHKANGVKIAVAADKLSNEDLAYVEKITGFSLEKFKANDGSSSRGTDSRDSERERRRRLKEQEEKERDRRLKERELYELKKARELLDEERSRLQEKELPPIKPPRPTSTTSVPNTTSVPPAESSNNNNSSNKYDWFEFFLNCGVDVSNCQRYTINFDREQLTEDMMPDINNSMLRTLGLREGDIVRVMKHLDKKFGRENIASIPTNATGNMFSQPDGSLNVATSPETSLPQQLLPQTTSPAQTAPSTSAETDDAWTVKPASKSESNLLSKKSEFTGSMQDLLDLQPLEPKKAAASTPEPNLKDLEPVKTGGTTVPAAPVSSAPVSSAPAPLDPFKTGGNNILPLSTGFVMMPMITGGDMLPMQRTGGFVVPQTTFGMQSQVTGGILPVQKTGNGLIPISNTGGAMMPQTTFGAAATVLPLQKTGGGLIPIATTGGAQFPQTSFNVQGQQQLPTGSILPVQKTANGLISANTGVSMPTVQRTGGTMIPQTSFGVSQQLTGGAMMTQPQNTGSAMMPQTSFNAVPQITGGAMMPQTSFNALPQVTGGAMMPLQRTGGALNTFNTGGAMIPQTSFSSQAQNTGGFRPQSQFGLTLQKTGGIAPLNQNQFTGGAMNTLSTGGVLQQQQPQTMNTFNTGGVMQELQMMTTFNTGGAMQQPQMMNTFNTDGIMQQPQMMNTFNTGGAMQQPQQQALQNQPTGFGFGNGPQQSRQANIFNATASNPFGF | 0.5353 | 0.6734 | 0.8649 | Ratio (Deletedscore / WTscore) (bait LSB1): 0.9074; Ratio (Deletedscore / WTscore) (bait PIN3): 0.824
4 | YGR229C_1 (protein, UniProt P32566 1-505, looked up) Cell wall assembly regulator …: MDLFKRKVKEWVYSLSTDDHYAEYNPDETPTFNMGKRLNSNNGQVNPSQMHLNSVDEEMSMGFQNGVPSNEDINIDEFTSTESNDGVSETLLAWRHIDFWTSEHNPDLNATLSDPCTQNDITHAEEDLEVSFPNPVKASFKIHDGQEDLESMTGTSGLFYGFQLMTLDQVVAMTQAWRNVAKNLNKRSQQGLSHVTSTGSSSSMERLNGNKFKLPNIPDQKSIPPNAVQPVYAHPAWIPLITDNAGNHIGVDLAPGPNGKYAQIITFGRDFDTKFVIAENWGEFLLSFANDLEAGNWYLVDDNDDYFSGDGELVFRDKKSNGPIQDYFEVLKRRTWIKYQENLRSQQQKSQPDTSLQEQKYVPASQKKVAAEQPSTLNAESIKGEDSGSADVQSVQDHESVKIVKTEPSEAETTTVNTESLGQAEHEIKADNVDIKQESERKEDEKQPKVEEKEHVENEHVTESAKKDDDVNKQTEEMNKKEENEIRSDDAKVEEAREEFENIAL | 0.6664 | – | – | Ratio (Deletedscore / WTscore) (bait BEM1-1): 0.1513
5 | YFL010C_1 (protein, UniProt P43582 1-211, looked up) WW domain-containing protein …: MAQSKSNPPQVPSGWKAVFDDEYQTWYYVDLSTNSSQWEPPRGTTWPRPKGPPPGVNNEKSSRQQADQAPPPYSSQSTPQVQAGAQAQQPRYYQPQQPQYPQYPQQQRYYPQQAPMPAAAPQQAYYGTAPSTSKGSGHGGAMMGGLLGVGAGLLGGAMLEHAFDDHNYDGPDTVVVENNYYGDDAGGSDGGFDDAGGFDGGFDDGFDGSDF | 0.6877 | – | – | –
6 | YFR024C-A_1 (protein, UniProt P43603 1-459, looked up) LAS seventeen-binding protein …: MGINNPIPRSLKSETKKAAKILASFVKPNQVFGADQVIPPDVLKRAKGLAIITILKAGFLFSGRAGSGVIVARLKDGTWSAPSAIAMAGAGAGGMVGIELTDFVFILNTQDAVKSFSEFGTITLGGNVSVSAGPLGRSAEAAASASAGGVAAVFAYSKSKGLFAGVSVEGSAIIERREANRKFYGDNCTAKMILSGRIRPPPAVDPLFRVLESRAFNYRPSNGGRGSFDDDEDDYYDDDDYYNDIPSSFSSTDASSTRPNTRSTRRRAQSGSRYTFDDDDDDDDYGTGYSRNSRLAPTNSGGSGGKLDDPSGASSYYASHRRSGTAQSRARSSRNRWADDEYDDYDDDYESGYRRGNGRDRTKDREVDDLSNRFSKSRISSASTPQTSQGRFTAPTSPSTSSPKAVALYSFAGEESGDLPFRKGDVITILKKSDSQNDWWTGRVNGREGIFPANYVELV | 0.507 | 0.7743 | 0.8345 | Ratio (Deletedscore / WTscore) (bait BZZ1-1): 0.736; Ratio (Deletedscore / WTscore) (bait HOF1): 1.194; Ratio (Deletedscore / WTscore) (bait RVS167): 0.8585
7 | YGR281W_1 (protein, UniProt P53049 1-1477, looked up) Oligomycin resistance …: MTITVGDAVSETELENKSQNVVLSPKASASSDISTDVDKDTSSSWDDKSLLPTGEYIVDRNKPQTYLNSDDIEKVTESDIFPQKRLFSFLHSKKIPEVPQTDDERKIYPLFHTNIISNMFFWWVLPILRVGYKRTIQPNDLFKMDPRMSIETLYDDFEKNMIYYFEKTRKKYRKRHPEATEEEVMENAKLPKHTVLRALLFTFKKQYFMSIVFAILANCTSGFNPMITKRLIEFVEEKAIFHSMHVNKGIGYAIGACLMMFVNGLTFNHFFHTSQLTGVQAKSILTKAAMKKMFNASNYARHCFPNGKVTSFVTTDLARIEFALSFQPFLAGFPAILAICIVLLIVNLGPIALVGIGIFFGGFFISLFAFKLILGFRIAANIFTDARVTMMREVLNNIKMIKYYTWEDAYEKNIQDIRTKEISKVRKMQLSRNFLIAMAMSLPSIASLVTFLAMYKVNKGGRQPGNIFASLSLFQVLSLQMFFLPIAIGTGIDMIIGLGRLQSLLEAPEDDPNQMIEMKPSPGFDPKLALKMTHCSFEWEDYELNDAIEEAKGEAKDEGKKNKKKRKDTWGKPSASTNKAKRLDNMLKDRDGPEDLEKTSFRGFKDLNFDIKKGEFIMITGPIGTGKSSLLNAMAGSMRKTDGKVEVNGDLLMCGYPWIQNASVRDNIIFGSPFNKEKYDEVVRVCSLKADLDILPAGDMTEIGERGITLSGGQKARINLARSVYKKKDIYLFDDVLSAVDSRVGKHIMDECLTGMLANKTRILATHQLSLIERASRVIVLGTDGQVDIGTVDELKARNQTLINLLQFSSQNSEKEDEEQEAVVAGELGQLKYESEVKELTELKKKATEMSQTANSGKIVADGHTSSKEERAVNSISLKIYREYIKAAVGKWGFIALPLYAILVVGTTFCSLFSSVWLSYWTENKFKNRPPSFYMGLYSFFVFAAFIFMNGQFTILCAMGIMASKWLNLRAVKRILHTPMSYIDTTPLGRILNRFTKDTDSLDNELTESLRLMTSQFANIVGVCVMCIVYLPWFAIAIPFLLVIFVLIADHYQSSGREIKRLEAVQRSFVYNNLNEVLGGMDTIKAYRSQERFLAKSDFLINKMNEAGYLVVVLQRWVGIFLDMVAIAFALIITLLCVTRAFPISAASVGVLLTYVLQLPGLLNTILRAMTQTENDMNSAERLVTYATELPLEASYRKPEMTPPESWPSMGEIIFENVDFAYRPGLPIVLKNLNLNIKSGEKIGICGRTGAGKSTIMSALYRLNELTAGKILIDNVDISQLGLFDLRRKLAIIPQDPVLFRGTIRKNLDPFNERTDDELWDALVRGGAIAKDDLPEVKLQKPDENGTHGKMHKFHLDQAVEEEGSNFSLGERQLLALTRALVRQSKILILDEATSSVDYETDGKIQTRIVEEFGDCTILCIAHRLKTIVNYDRILVLEKGEVAEFDTPWTLFSQEDSIFRSMCSRSGIVENDFENRS | 0.5928 | 0.4945 | 0.6948 | Ratio (Deletedscore / WTscore) (bait BEM1-2): 0.6055
